The chains are these.
B2: AIP4 PRR/WWI-IV 155-486 (protein)
chain: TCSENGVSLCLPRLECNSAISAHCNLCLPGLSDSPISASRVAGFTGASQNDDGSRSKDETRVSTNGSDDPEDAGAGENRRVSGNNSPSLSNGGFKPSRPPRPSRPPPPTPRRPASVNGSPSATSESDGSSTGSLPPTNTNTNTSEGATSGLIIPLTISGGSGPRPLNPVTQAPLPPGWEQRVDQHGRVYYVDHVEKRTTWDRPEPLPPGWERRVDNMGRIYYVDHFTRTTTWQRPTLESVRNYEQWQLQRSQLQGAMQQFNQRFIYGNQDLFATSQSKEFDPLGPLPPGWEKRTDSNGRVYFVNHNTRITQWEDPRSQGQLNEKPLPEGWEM

Assay [1] deals with B2. The assay can be described thus: competition ELISA. (In an ELISA, binding on a coated surface is turned into a signal by an enzyme label.)
The target in assay [2] is B2. The assay can be described thus: ELISA.
Assay [3] addresses B2. The assay can be described thus: competition ELISA. The source holds these as a separate data set.
The target of a further assay is AIP4 HECT domain HECT (Homo sapiens, UniProt Q96J02). The assay can be described thus: ELISA.
AIP4 HECT domain HECT, sequence (Q96J02 566-903): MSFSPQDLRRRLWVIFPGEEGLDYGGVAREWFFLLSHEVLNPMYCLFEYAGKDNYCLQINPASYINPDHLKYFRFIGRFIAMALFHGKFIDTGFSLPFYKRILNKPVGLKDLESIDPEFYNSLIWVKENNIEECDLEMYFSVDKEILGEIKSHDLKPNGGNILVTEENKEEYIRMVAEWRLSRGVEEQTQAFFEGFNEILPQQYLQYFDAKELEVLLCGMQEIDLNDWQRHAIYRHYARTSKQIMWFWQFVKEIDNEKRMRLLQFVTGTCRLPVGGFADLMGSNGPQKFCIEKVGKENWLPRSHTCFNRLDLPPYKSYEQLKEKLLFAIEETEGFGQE

AIP4 PRR/WWI-IV 155-486, sequence (Q96J02 155-486): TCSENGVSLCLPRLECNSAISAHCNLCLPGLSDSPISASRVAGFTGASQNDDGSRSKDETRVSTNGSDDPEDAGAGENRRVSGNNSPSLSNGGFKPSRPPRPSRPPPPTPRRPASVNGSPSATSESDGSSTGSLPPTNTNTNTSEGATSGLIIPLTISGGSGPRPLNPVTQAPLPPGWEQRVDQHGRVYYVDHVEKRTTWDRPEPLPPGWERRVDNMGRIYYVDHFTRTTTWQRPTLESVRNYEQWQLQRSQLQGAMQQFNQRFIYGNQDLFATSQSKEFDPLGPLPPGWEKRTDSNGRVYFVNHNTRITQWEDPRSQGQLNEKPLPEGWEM

B1: spartin 155-367 (protein)
chain: APASLSLPSQSCPAEAPPAYTPQAAEGHYTVSYGTDSGEFSSVGEEFYRNHSQPPPLETLGLDADELILIPNGVQIFFVNPAGEVSAPSYPGYLRIVRFLDNSLDTVLNRPPGFLQVCDWLYPLVPDRSPVLKCTAGAYMFPDTMLQAAGCFVGVVLSSELPEDDRELFEDLLRQMSDLRLQANWNRAEEENEFQIPGRTRPSSDQLKEASGT
As for B1, the Ki (as a rule, the dissociation constant of the complex between target and ligand, obtained from inhibition or displacement) in the assay with AIP4 PRR/WWI-IV 155-486 [1] turned out to be 0.21 µM. In addition, the dissociation constant Kd – broadly, the equilibrium constant for the complex coming apart – with AIP4 PRR/WWI-IV 155-486 [2] came to 0.34 µM. In the assay with AIP4 PRR/WWI-IV 155-486 [3], the IC50 – broadly, the midpoint of a concentration-inhibition curve – stood at 0.56 µM.

In the case of B2, binding in the assay with AIP4 HECT domain HECT was put at a Kd of 2 µM.

Values taken from PMC2887783 (2010).
